These results are taken from patent publication US20230203155A1 (ALMAC DISCOVERY, published 2023).

Assay [1] concerns the target T1, human ROR2-hFc fusion protein (extracellular domain) (human).
T1 construct: Whole entry 'human ROR2-Fc (CHO)'; also called hROR2
Put plainly: SPR, ROR2-hFc on chip.
Description: (§1) Binding kinetics were determined using a Pioneer Surface Plasmon Resonance (SPR) instrument (SensiQ/Pall ForteBio). […] VNARs and VNAR-Fc molecules were tested at various concentrations and the Ka (M⁻¹s⁻¹), Kd (s⁻¹) and KD (nM) values were determined using QDat software (SensiQ/Pall ForteBio).
(§2) Using the procedures outlined above the binding of VNAR-Fc fusions to human, mouse and rat ROR1 and human ROR2 were determined by SPR.

Assay [2] has as its target T2, human ROR1-hFc fusion protein (extracellular domain) (human).
T2 construct: Whole entry 'human ROR1-Fc (CHO)'; also called hROR1; huROR1-Fc
Put plainly: SPR, ROR1-hFc on chip.
Description: as §1, §2

T2 sequence (chain, as listed by the source limits assumed): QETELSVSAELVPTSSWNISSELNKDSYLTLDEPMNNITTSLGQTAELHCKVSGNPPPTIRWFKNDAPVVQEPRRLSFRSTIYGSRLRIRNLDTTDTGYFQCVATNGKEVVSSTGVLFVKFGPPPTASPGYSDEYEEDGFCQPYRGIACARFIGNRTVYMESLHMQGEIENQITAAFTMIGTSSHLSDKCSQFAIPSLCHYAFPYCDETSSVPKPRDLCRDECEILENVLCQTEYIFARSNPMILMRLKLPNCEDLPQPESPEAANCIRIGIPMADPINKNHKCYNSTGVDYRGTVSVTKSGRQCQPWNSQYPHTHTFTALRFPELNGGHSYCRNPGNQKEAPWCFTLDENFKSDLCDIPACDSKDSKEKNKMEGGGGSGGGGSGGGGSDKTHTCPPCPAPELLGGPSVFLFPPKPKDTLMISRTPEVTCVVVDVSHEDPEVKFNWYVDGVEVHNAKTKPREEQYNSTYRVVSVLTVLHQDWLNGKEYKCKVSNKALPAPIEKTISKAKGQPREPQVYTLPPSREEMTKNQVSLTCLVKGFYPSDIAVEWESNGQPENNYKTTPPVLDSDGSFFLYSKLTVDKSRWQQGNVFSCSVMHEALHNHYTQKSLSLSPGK
T1 sequence (chain, as listed by the source limits assumed): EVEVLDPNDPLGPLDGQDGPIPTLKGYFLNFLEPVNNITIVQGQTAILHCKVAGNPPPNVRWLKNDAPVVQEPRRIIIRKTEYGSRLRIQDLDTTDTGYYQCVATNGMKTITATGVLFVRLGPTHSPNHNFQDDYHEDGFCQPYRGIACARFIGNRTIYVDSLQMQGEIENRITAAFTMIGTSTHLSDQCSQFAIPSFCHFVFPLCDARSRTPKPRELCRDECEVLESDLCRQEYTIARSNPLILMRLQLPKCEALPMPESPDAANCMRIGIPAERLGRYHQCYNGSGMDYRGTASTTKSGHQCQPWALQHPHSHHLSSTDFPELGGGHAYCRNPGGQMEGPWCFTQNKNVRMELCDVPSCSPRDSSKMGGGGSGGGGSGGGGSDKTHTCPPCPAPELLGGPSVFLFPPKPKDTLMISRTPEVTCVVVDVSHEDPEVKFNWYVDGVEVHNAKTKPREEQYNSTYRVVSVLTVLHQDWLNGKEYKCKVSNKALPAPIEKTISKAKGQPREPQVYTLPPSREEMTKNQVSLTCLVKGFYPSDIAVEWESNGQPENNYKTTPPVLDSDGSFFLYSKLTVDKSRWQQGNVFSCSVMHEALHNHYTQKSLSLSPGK

B1: 2V mFc (Fc fusion)
chain: TRVDQTPRTATKETGESLTINCVLTDTSYGLYSTSWFRKNPGTTDWERMSIGGRYVESVNKGAKSFSLRIKDLTVADSATYYCKAQSLAISTRSYWYDGAGTVLTVNGGGGSGGGGSGGGGSEPRGPTIKPCPPCKCPAPNLLGGPSVFIFPPKIKDVLMISLSPIVTCVVVDVSEDDPDVQISWFVNNVEVHTAQTQTHREDYNSTLRVVSALPIQHQDWMSGKEFKCKVNNKDLPAPIERTISKPKGSVRAPQVYVLPPPEEEMTKKQVTLTCMVTDFMPEDIYVEWTNNGKTELNYKNTEPVLDSDGSYFMYSKLRVEKKNWVERNSYSCSVVHEGLHNHHTTKSFSRTPGK
notes: control
For the molecule B1, the binding result in assay [1] and in assay [2] was “no binding” throughout.
